Earlier results in article PMC8335159.

Legend:
[1] = target: TIMP-3 cyclic peptide 60-70 (Homo sapiens)
[2] = target: TIMP-3 cyclic peptide 61-70 (Homo sapiens)
[3] = target: TIMP-3 cyclic peptide 62-68 (Homo sapiens)
[4] = target: VWF peptide 1660-1668 (Homo sapiens) (UniProt P04275)

Row | Substance | Kd [1] [µM] | Kd [2] [µM] | Kd [3] [µM] | Ki [4] [µM]
1 | ADAM-17 (from UniProt P78536) | 18 | 3.7 | 25 | –
2 | ADAMTS-13 (from UniProt Q76LX8) | – | – | – | 1
